Where a chain is given by its changes, count along the chain named. Numbers in names are those of the source. Where two headings read alike, the source gives them in different places. One block for each binder: values may come before it.
Tests used:
[1] = molecular target: T1, yeast E2 Ubc9 (wild type) (yeast, UniProt P50623 1-157); assay: fluorescence polarisation
T1 sequence (looked up): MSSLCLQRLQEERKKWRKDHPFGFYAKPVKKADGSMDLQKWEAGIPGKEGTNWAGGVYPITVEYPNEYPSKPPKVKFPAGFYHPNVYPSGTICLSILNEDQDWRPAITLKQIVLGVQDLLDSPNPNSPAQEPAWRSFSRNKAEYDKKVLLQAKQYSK

[2] = molecular target: T2, yeast E3 active fragment Siz1^(167–465) (yeast, UniProt Q04195 167-465); assay: competitive inhibition of multiple turnover SUMO conjugation
T2 sequence (looked up): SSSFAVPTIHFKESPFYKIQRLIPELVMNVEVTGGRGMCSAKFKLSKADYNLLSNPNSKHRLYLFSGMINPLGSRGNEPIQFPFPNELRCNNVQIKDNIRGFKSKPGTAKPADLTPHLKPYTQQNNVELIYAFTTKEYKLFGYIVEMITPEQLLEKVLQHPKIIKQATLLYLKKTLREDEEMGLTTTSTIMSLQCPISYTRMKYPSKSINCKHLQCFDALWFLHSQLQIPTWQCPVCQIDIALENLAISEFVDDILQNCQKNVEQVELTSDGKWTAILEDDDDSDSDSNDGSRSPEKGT

[3] = molecular target: T2, yeast E3 active fragment Siz1^(167–465); assay: as above; remark: listed apart in the source

Kd [1]: 24.6 nM
B1: Smt3^K11C-Alexa488 (natural protein)
chain: SDSEVNQEACPEVKPEVKPETHINLKVSDGSSEIFFKIKKTTPLRRLMEAFAKRQGKEMDSLRFLYDGIRIQADQTPEDLDMEDNDIIEAHREQIGG
modifications: Alexa Fluor 488 maleimide on Cys11

Ki [2]: 2050 nM
Ki [3]: 1440 nM
B2: Ubc9^C93K-Smt3 thioester mimetic (complex)
chain 1: T1 sequence (looked up) with C93K
chain 2: B1 chain with C10K
modifications: Lys93 linked to the C-terminus of Smt3 (stable peptide bond) | C-terminus linked to Lys93 of Ubc9

Ki [2]: 4330 nM
Ki [3]: 3150 nM
B3: Ubc9^A129K/K153R-Smt3 thioester mimetic (complex)
chain 1: T1 sequence (looked up) with A129K, K153R
chain 2: B1 chain with C10K
modifications: Lys129 linked to the C-terminus of Smt3 | C-terminus linked to Lys129 of Ubc9

— PMC5019495 (Nature, 2016)
